Results as given in US20240343789A1 (published 2024).
Numbering of substitutions follows the chain as printed. Where two headings read alike, the source gives them in different places. Values belong to the binder of their own block, whether it stands above or below them.

Experiments:
Assay in all cases: ECL ELISA titration
[1] = molecular target: T1, IGFR-L1 protein (Endosome/lysosome-associated apoptosis and autophagy regulator 1, ELAPOR1) (UniProt Q6UXG2 42-1013)
T1 chain: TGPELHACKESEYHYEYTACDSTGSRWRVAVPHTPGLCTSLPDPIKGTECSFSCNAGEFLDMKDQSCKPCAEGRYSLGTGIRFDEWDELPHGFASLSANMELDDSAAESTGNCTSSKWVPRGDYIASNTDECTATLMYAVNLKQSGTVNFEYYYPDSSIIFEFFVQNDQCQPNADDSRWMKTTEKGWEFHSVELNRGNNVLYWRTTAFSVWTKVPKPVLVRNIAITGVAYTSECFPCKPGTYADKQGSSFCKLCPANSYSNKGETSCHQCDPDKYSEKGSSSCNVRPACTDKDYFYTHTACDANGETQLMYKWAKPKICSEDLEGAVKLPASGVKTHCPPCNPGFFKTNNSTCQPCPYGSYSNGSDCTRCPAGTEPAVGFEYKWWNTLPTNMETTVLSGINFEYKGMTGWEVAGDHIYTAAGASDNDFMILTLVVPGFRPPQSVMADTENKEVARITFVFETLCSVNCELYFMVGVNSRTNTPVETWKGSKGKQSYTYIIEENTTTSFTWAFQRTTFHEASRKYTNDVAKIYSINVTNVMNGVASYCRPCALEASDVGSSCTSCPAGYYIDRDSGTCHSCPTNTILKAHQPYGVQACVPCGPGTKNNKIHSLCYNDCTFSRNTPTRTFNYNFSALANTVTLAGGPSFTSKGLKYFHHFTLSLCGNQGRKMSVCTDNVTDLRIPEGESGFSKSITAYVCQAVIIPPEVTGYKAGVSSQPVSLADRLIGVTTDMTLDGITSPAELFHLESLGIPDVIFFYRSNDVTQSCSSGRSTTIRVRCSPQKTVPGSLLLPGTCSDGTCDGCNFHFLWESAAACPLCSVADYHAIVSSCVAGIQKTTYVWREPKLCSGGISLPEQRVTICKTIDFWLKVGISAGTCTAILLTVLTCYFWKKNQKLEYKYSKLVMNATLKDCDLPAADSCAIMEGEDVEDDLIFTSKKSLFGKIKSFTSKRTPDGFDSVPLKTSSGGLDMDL

[2] = molecular target: T1, IGFR-L1 protein …
[3] = molecular target: T1, IGFR-L1 protein …
[4] = molecular target: T1, IGFR-L1 protein …
[5] = molecular target: T1, IGFR-L1 protein …
[6] = molecular target: T1, IGFR-L1 protein …

B1: AB-4 (antibody, V domains shown)
VH: EVQLVESGGGFVRPGKSLKLSCSASGFTFNTYGMHWIRQAPGKGLDWVSYISSSSATAYADAVKGRFTISRDNAKNTLYLQLNSLRSEDTAIYHCAREATYYGYPRYYFDYWGQGVMVTVSS
VL: DIQMTQSPSSMSVSLGDRVTFTCRASQDIGNYLSWYQQKPEKSPRLMIYTATDLEDGVPSRFSGSRSGSDYSLTINSLESEDRGIYFCLQHKQYPYTFGSGTKLELKR
- Kd [1]: 2.76 nM

B3: AB-6 (antibody, V domains shown)
VH: EVQLVESDGGLVQPGRSLKLSCAASGFSFSDYYMAWLRQAPTKGLEWVATISHDGTGTYFRDSVKGRFTISRDNVKSTLYLQLDSLRSEDTATYYCARHKDGGYKDYWGQGVMVTVSS
VL: DIKMTQSPSPLSASLGERVTISCRASDNIDNYLSWYQKKEDGSVRLLIYHTSRLQPGAPSRFSGSGSGKDYSLTISGLESEDIATYYCQQTYTPYTFGAGTKLELRR
- Kd [3]: 5.27 nM

B4: AB-12 (antibody, V domains shown)
VH: EVKLLESGGGLVQPGGSMRLSCAASGFTFTDFYMNWIRQPAGKAPEWLGFIRNKANGYTTEYTPSVKGRFTISRDDTQNMLYLQMNTLRAEDTATYYCARHYYDGSYYYWYFDFWGPGTMVTVSS
VL: DVVLTQTPVAQPVTLGDQVSISCRSSQSLVKSNGNTYLEWFLQKPGQSPQLLIYKVSNRFSGVPDRFIGSGSGSDFTLKISRVEPEDLGVYYCFQAAHDPRTFGGGTKLELKR
- Kd [4]: 2.79 nM

B6: AB-10 (antibody, V domains shown)
VH: GVQLVESGGGLVQSGRSIKVSCEASGFTFSNFYMAWVRQAPTKGLEWVASISSGGGNTHYRDSVRGRFTISRNNAKSTLYLQMDSLNSEDTATYYCARDPGGGSPYWYLDFWGPGTMVTVSS
VL: DIVLTQSPALAVSLGQRATISCRANQNVDFYDNTYLHWYQQKPGQQPKLLIYLASNLASGIPARFSGGGSGTDFTLTIDPVEADDTATYYCQQSRNLPNTFGAGTKLELKR
- Kd [2]: 1.01 nM

B8: AB-11 (antibody, V domains shown)
VH: EVQLVESDGGFVQPGRSLKLSCAASGFTFSDYYMSWVRQAPTKGLEWVATIGYDGTYTNYRDSVKGRFTISRDNARSILYLQMDSLRSEDTATYYCARHPSYFDHWGQGVMVTVSS
VL: DIVMTQSPSSLAVSAGETVTINCKSSQSLLYSENQKNYLAWFQQRPGQSPKLLINWASTRQSGVPDRFIGSGSGTDFTLTISSVQAEDLATYHCQQYYDTPRTFGGGSKLELKR
- Kd [4]: 2.81 nM

B9: AB-5 (antibody, V domains shown)
VH: EVQLVESGGGLVQPGRSLKLSCAAPGFTFSASDMAWVRQAPTKGLEWVASISPSGDSTYYRDSILGRFTVSRDNAKSSLYLQMDSLRSEDTATYYCARHLGLGPFDHWGQGVMVTVSS
VL: DIQMTQSPSLLSASVGDRVTLSCKAGRDINNYLAWYQQKLGEAPKLLIYNANFLQTGIPSRFSGSGSGTDYTLTISSLQPEDVATYFCQQFNTWTGTFGGGTKLELKR
- Kd [3]: 4.78 nM

B10: AB-1 (antibody, V domains shown)
VH: EIQLQESGPGLVKPSQSLSLTCSVTDYTITSGFGWSWIRKFPGNKLEWMGYISYSGSTNYNPSLKSRLSLTRDTTKNQFFLQLISVTPEDTATYYCARSPLYGSNRYVVDAWGQGASVTVSS
VL: DVQMTQSPSILTASPGESVSINCKASKSISNYLAWYQQKPGKSINLLIYSGSTLQSGTPSRFSGSGSGTDFTLTIRNLDPEDFGRYYCQQHNENPYTFGPGTRLELKR
- Kd [5]: 2.8 nM

B12: AB-8 (antibody, V domains shown)
VH: QVQLQQSGAELAKPGSSVKISCKASGYTFTSYFISWIKQTTGQDLEYIGYINTGSGGTNYNEKFKGKATLTVDRSSSTAFMQLSSLTPDDSAVYYCARELRRVRGWFAYWGQGTLVTVSS
VL: DTQMTQSPASLFASLGETVTIQCQASEDISSGLAWYQQKPGKSPHLLIYGANSLQDGVPSRFSGSGSGTQYSLKITNMQADDEGVYFCQQGLKYPFTFGSGTKLEIKR
- Kd [6]: 2.74 nM

Further lines, results first:

- Kd [2]: 2.95 nM
B2: AB-9 (antibody, V domains shown)
VH: EVQLVESGGGLVQPTGSVKLSCAASGFIFTNYGMAWVRQAPKKGLEWVAYISYDGGSTYFRDSVRGRFTISRDNAKSTLYLHMDSLRSEDTATYYCTTPRLDTWGQGVMVTVSS
VL: DIQMTQSPSSLSASLGDRVTITCRPSQDIGNHLSWFQQKPGKSPRLMTYGATILEDGVPSRFSGSRSRSDYSLTISSLESEDTAIYYCLQYDKYPRTFGGGTKVELKR

- Kd [1]: 2.75 nM
B5: AB-3 (antibody, V domains shown)
VH: EVQLLESGGGLVQPGGSLSLSCAASGFTFTDFYMNWIRQPAGKAPEWLAFARNKANGYTTDYNPSVKGRFAISRDNTQNMFYLHMNTLRPEDTATYYCARGRPSDYWGQGVMVTVSS
VL: DIVMTQSPSSLAVSTGETVTMDCKSSQNLFYSGNQRNYLAWYQQKPGQSPTLLIYWASTRRSGVPDRFIGSGSGTDFTLTISSVQAEDLALYYCQQYDDPPYTFGAGTKLELKR

- Kd [5]: 2.22 nM
B7: AB-2 (antibody, V domains shown)
VH: B8 VH with K19T, G55V, T56S, R76K, Y80S, H105Y
VL: B8 VL with L30F, F42L, R45K, N55T, T91I, S108T, K109Q

- Kd [6]: 1.44 nM
B11: AB-7 (antibody, V domains shown)
VH: QVKLLQSGAALVKPGDSVKMSCKASGYSFTDYSIHWVKQSHGKSLEWIGYINPYSGGTTYNEKFKRKATLTVDKSSSTAYMEFSRLTSEDSAIYYCAREGMGITLYVMDAWGQGASVTVSS
VL: DIVLTQSPALAVSLGQRATVSCKASQTVTISRYHLLHWYQQKPGQQPTLLIYRASNLASGIPARFSGSGSGTDFTLTINPVQADDLASYYCQQSWGSPWTFGGGTKLELKR
